Target: EphA4 receptor extracellular domain fused to a human Fc region (human)
Test: inhibition of ephrin-A5 AP binding to EphA4

Sequence of EphA4 receptor extracellular domain fused to a human Fc region (human) (Q03137 20-547): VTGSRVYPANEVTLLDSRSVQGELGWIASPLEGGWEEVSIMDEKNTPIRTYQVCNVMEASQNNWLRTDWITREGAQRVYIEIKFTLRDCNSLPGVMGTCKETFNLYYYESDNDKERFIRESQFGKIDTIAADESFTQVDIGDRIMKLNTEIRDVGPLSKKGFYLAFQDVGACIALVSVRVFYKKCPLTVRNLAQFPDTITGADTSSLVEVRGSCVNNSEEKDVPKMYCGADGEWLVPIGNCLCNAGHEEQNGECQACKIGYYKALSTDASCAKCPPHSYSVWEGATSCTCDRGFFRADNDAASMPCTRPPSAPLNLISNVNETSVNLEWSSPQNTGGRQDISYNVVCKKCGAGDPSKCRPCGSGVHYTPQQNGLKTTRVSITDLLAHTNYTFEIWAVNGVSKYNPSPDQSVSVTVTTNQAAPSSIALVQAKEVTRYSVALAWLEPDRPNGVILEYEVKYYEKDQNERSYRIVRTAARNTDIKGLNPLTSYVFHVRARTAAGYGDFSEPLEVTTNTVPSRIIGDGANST

concentration required for similar levels of inhibition of ephrin-A5 AP binding [µM]	concentration that almost completely inhibited ephrin-A5 AP binding [µM]	Substance
10	–	APY peptide (synthetic, biotinylated)
100	–	VTM peptide (synthetic, biotinylated)
–	1	KYL peptide (synthetic, biotinylated)

From patent US20040180823A1
